This series deals with the molecule itself. Description: negative-stain electron microscopy of fibrils.

B1: CrSSNA1(1-105) (domain or fragment, Chlamydomonas reinhardtii, UniProt Q9XF62 1-105, looked up)
chain: MSAQGQALQNHNNELVKCIEDLREKREEIIKQLREDDAEKAKITQELQILTKRLAQVNESIARKTETKNEYDKVISETEAAYLKILESSQTLLTVLKREAVNIAK
Take B1: the binding result is recorded as “binds”.

B2: CrSSNA1(20-111) (domain or fragment, Chlamydomonas reinhardtii, UniProt Q9XF62 20-111, looked up)
chain: EDLREKREEIIKQLREDDAEKAKITQELQILTKRLAQVNESIARKTETKNEYDKVISETEAAYLKILESSQTLLTVLKREAVNIAKKKQASS
For the protein B2, the binding result is “binds”.

(Values after publication PMC6330057 (Nature cell biology, 2018).)
